For the data set, the target named is strepAID (human, UniProt Q9GZX7 1-198). Description: EMSA. For orientation: In EMSA bound probe runs differently from free probe, usually more slowly.
Sequence of strepAID (Q9GZX7 whole entry): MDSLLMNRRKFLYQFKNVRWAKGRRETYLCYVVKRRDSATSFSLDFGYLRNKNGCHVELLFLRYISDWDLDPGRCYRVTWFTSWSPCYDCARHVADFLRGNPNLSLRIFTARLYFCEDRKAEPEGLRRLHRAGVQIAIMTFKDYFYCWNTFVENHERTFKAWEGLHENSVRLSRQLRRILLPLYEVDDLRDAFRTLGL

AUCGGAAUGUAUGAGAAUAGAAGAGAUAAUGAAUAAUAGAA (ssRNA) [ssRNA]: the binding result is given as “binds”.

Regarding ATCGGAATGTATGAGAATAGAAGAGATAATGAATAATAGAA (ssDNA) [ssDNA (TCGend)], the binding result was “binds”.
